{"source": "patent US20110171194A1", "about": "(TRUSTEES OF COLUMBIA UNIVERSITY IN THE CITY OF NEW YORK, published 2011)", "binders": {"B1": {"name": "GST-ABAD(159-261) (other, UniProt Q99714 159-261, looked up)", "chain": "FEGQVGQAAYSASKGGIVGMTLPIARDLAPIGIRVMTIAPGLFGTPLLTSLPEKVCNFLASQVPFPSRLGDPAEYAHLVQAIIENPFLNGEVIRLDGAIRMQP", "modifications": "125I-labeled", "notes": "not shown: glutathione S-transferase (GST) tag"}}, "molecular_target": "T1, Aβ(1-42) (UniProt P05067 672-713)", "T1 construct": "domain: Aβ(1-42); Residue numbers count on Aβ, not on APP", "T1 sequence (P05067 672-713 limits assumed)": "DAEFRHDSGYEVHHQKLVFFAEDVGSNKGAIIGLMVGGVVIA", "experiment": "125I-labeled GST-ABAD truncation binding to immobilized Aβ(1-42)"}
{"binder": "B1", "values": [{"measurement": "binding result", "result": "no binding"}]}
